Reference: PMC5473870, “Crystal structure of the DNA-binding domain of Myelin-gene Regulatory Factor” (Scientific Reports, 2017)

B1: MyRF DBD after auto-cleavage (351–586 plus N-terminal his tag and linker) (domain or fragment, mouse, UniProt Q3UR85-3 351-586, looked up)
chain: IKWQPHQQNKWATLYDANYKELPMLTYRVDADKGFNFSVGDDAFVCQKKNHFQVTVYIGMLGEPKYVKTPEGLKPLDCFYLKLHGVKLEALNQSINIEQSQSDRSKRPFNPVTVNLPPEQVTKVTVGRLHFSETTANNMRKKGKPNPDQRYFMLVVALQAHAQNQNYTLAAQISERIIVRASNPGQFESDSDVLWQRAQLPDTVFHHGRVGINTDRPDEALVVHGNVKVMGSLMHP
notes: Myelin-gene Regulatory Factor (MyRF), mouse, NP_001028653.1; N-terminal product (351-586) of auto-cleavage of the expressed fragment 351-717 (DBD and ICA); also called wild type MyRF DBD; source: E. coli BL21 (DE3), expressed as fragment 351-717, auto-cleaved, purified (nickel-sepharose); not shown: His6, N-terminal, kept
B2: MyRF DBD core (proteolytically resistant, after limited proteolysis with trypsin) (domain or fragment, mouse)
chain: IKWQPHQQNKWATLYDANYKELPMLTYRVDADKGFNFSVGDDAFVCQKKNHFQVTVYIGMLGEPKYVKTPEGLKPLDCFYLKLHGVKLEALNQSINIEQSQSDRSKRPFNPVTVNLPPEQVTKVTVGRLHFSETTANNMRKKGKPNPDQRYFMLVVALQAHAQNQNYTLAAQISERIIVRAS
modifications: selenomethionyl substituted in the crystals (4 Se per molecule)
notes: Myelin-gene Regulatory Factor (MyRF), mouse, NP_001028653.1; trypsin-resistant core of about 24 kD, 210 residues, made from the expressed fragment 351-717; PDB 5H5P holds the crystallised chain; also called MyRF DBD core only; MyRF DBD (crystal structure); source: E. coli BL21 (DE3), nickel-sepharose, limited proteolysis with trypsin, purified (Superdex-75)

Target: the molecule itself
Test: SEC; gel filtration on Superdex-200, 20 mM Tris-HCl pH 7.4, 50 mM NaCl, 5% glycerol; calibrated with ferritin, BSA and ovalbumin

| Protein | stoichiometry N |
| --- | --- |
| B1 | 3 |
| B2 | 3 |
